Experimental data from US20080032921A1.

Assays:
[1] = target: purified HLA DRB1*0101 (human); experiment: competition with 125I-labelled reference peptide, purified HLA
[2] = target: purified HLA DRB1*0404 (human); experiment: as above
[3] = target: purified HLA DRB1*0301 (human); experiment: as above
[4] = target: purified HLA DRB1*1302 (human); experiment: as above
[5] = target: purified HLA DRB1*0401 (human); experiment: as above
[6] = target: purified HLA DRB5*0101 (human); experiment: as above
[7] = target: purified HLA DRB1*1501 (human); experiment: as above
[8] = target: purified HLA DRB4*0101 (human); experiment: as above
[9] = target: purified HLA DRB1*0405 (human); experiment: as above
[10] = target: purified HLA DRB1*0701 (human); experiment: as above
[11] = target: purified HLA DRB1*1101 (human); experiment: as above
[12] = target: HLA-DR DRB1*0701 (human); experiment: competition with 125I-labeled reference peptide, purified HLA
[13] = target: HLA-DR DRB5*0101 (human); experiment: as above
[14] = target: HLA-DR DRB1*1302 (human); experiment: as above
[15] = target: HLA-DR DRB1*0405 (human); experiment: as above
[16] = target: HLA-DR DRB1*0101 (human); experiment: as above
[17] = target: HLA-DR DRB4*0101 (human); experiment: as above
[18] = target: HLA-DR DRB1*1501 (human); experiment: as above
[19] = target: HLA-DR DRB1*0404 (human); experiment: as above
[20] = target: HLA-DR DRB1*0301 (human); experiment: as above
[21] = target: HLA-DR DRB1*0401 (human); experiment: as above
[22] = target: HLA-DR DRB1*1101 (human); experiment: as above
[23] = target: HLA-DR DRB1*0802 (human); experiment: as above
[24] = target: HLA-DR DRB1*0701 (human); experiment: competition with 125I-labelled peptide for purified HLA-DR
[25] = target: HLA-DR DRB5*0101 (human); experiment: as above
[26] = target: HLA-DR DRB1*1302 (human); experiment: as above
[27] = target: HLA-DR DRB1*0405 (human); experiment: as above
[28] = target: HLA-DR DRB1*0101 (human); experiment: as above
[29] = target: HLA-DR DRB4*0101 (human); experiment: as above
[30] = target: HLA-DR DRB1*1501 (human); experiment: as above
[31] = target: HLA-DR DRB1*0901 (human); experiment: as above
[32] = target: HLA-DR DRB1*0404 (human); experiment: as above
[33] = target: HLA-DR DRB1*0301 (human); experiment: as above
[34] = target: HLA-DR DRB1*0401 (human); experiment: as above
[35] = target: HLA-DR DRB1*1101 (human); experiment: as above
[36] = target: HLA-DR DRB1*0802 (human); experiment: as above

AKSMEYDAVATTHSW (modifications not checked) [Flu.PB1.655] was tested. Which IC50 [1] did it give?
Its IC50 is 202 nM.

And the IC50 [2]?
Its IC50 is 646 nM.

And the IC50 [3]?
Its IC50 is 909 nM.

And the IC50 [4]?
The IC50 was 2180 nM.

And the IC50 [5]?
The IC50 was 53 nM.

And the IC50 [6]?
The IC50 was 3530 nM.

What about the IC50 [7] of the same binder?
Its IC50 is 1990 nM.

What about the IC50 [8] of the same binder?
The IC50 was 6340 nM.

And the IC50 [9]?
The IC50 was 626 nM.

And the IC50 [10]?
Its IC50 is 292 nM.

And the IC50 [11]?
The IC50 was 6620 nM.

Which results are given for RREVHIYYLEKANKI (modifications not checked) [Flu.PA.127]?
IC50 [12]: 23 nM; IC50 [13]: 25 nM; IC50 [14]: 150 nM; IC50 [15]: 1490 nM; IC50 [16]: 34 nM; IC50 [17]: 5 nM; IC50 [18]: 4.5 nM; IC50 [19]: 181 nM; IC50 [20]: > 10000 nM; IC50 [21]: 63 nM; IC50 [22]: 96 nM; IC50 [23]: 95 nM; IC50 [24]: 23 nM; IC50 [25]: 25 nM; IC50 [26]: 150 nM; IC50 [27]: 1490 nM; IC50 [28]: 34 nM; IC50 [29]: 5 nM; IC50 [30]: 4.5 nM; IC50 [31]: 851 nM; IC50 [32]: 181 nM; IC50 [33]: > 10000 nM; IC50 [34]: 63 nM; IC50 [35]: 96 nM; IC50 [36]: 95 nM
